Assay results as given in ChEMBL document CHEMBL3596158, “Exploring the substrate promiscuity of an antibiotic inactivating enzyme” (Medchemcomm, 2014).

Tests used:
[1] = target: T1, Microcin C7 self-immunity protein MccF (Escherichia coli) (UniProt Q47511); test: Ratio of compound Kcat/Km to ESA Kcat/Km for wild type Escherichia coli MccF expressed in Escherichia coli Rosetta2 (DE3)
T1 sequence (whole entry): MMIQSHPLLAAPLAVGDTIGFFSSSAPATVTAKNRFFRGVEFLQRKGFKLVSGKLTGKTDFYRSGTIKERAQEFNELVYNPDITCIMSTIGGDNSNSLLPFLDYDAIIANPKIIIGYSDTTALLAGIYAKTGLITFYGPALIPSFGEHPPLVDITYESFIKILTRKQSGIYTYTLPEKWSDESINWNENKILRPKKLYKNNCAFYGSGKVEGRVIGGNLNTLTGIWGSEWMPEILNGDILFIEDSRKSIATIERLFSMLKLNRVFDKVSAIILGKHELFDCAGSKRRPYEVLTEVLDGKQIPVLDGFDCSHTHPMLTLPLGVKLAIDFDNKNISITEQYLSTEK

[2] = substrate: N[C@@H](CCC(=O)O)C(=O)NS(=O)(=O)OC[C@H]1O[C@@H](n2cnc3c(=O)[nH]cnc32)[C@H](O)[C@@H]1O; test: (§1) Substrate activity at wild type Escherichia coli MccF expressed in Escherichia coli Rosetta2 (DE3) by bovine glutamate dehydrogenase-coupled continuous assay
[3] = substrate: Nc1ncnc2c1ncn2[C@@H]1O[C@H](COS(=O)(=O)NC(=O)[C@@H](N)CCC(=O)O)[C@@H](O)[C@H]1O; test: as §1
[4] = substrate: Nc1nc2c(ncn2[C@@H]2O[C@H](COS(=O)(=O)NC(=O)[C@@H](N)CCC(=O)O)[C@@H](O)[C@H]2O)c(=O)[nH]1; test: as §1

Nc1nc2c(ncn2[C@@H]2O[C@H](COS(=O)(=O)NC(=O)[C@@H](N)CCC(=O)O)[C@@H](O)[C@H]2O)c(=O)[nH]1
Ratio [1]: 1.5

N[C@@H](CCC(=O)O)C(=O)NS(=O)(=O)OC[C@H]1O[C@@H](n2cnc3c(=O)[nH]cnc32)[C@H](O)[C@@H]1O
Ratio [1]: 0.6

B1: Microcin C7 self-immunity protein MccF (Escherichia coli), Q47511 (protein)
chain: T1 sequence (whole entry)
Km [2]: 90.9 µM
kcat [2]: 38.1 min⁻¹
Km [3]: 51.6 µM
kcat [3]: 35 min⁻¹
Km [4]: 33.4 µM
kcat [4]: 34.9 min⁻¹
